PMC3989220
Where two headings read alike, the source gives them in different places.

What was measured:
GKRP (Rattus norvegicus) = GKRP (Rattus norvegicus) (UniProt Q07071); conditions: cited from earlier work
[1] = target: Glucokinase (GK) cloned from rat hypothalamic tanycyte cultures, recombinant (rat) (UniProt P17712)
[2] = target: Glucokinase (GK) cloned from rat hypothalamic tanycyte cultures, recombinant (rat) (UniProt P17712); test: enzyme inhibition kinetics (glucose-6-phosphate dehydrogenase-coupled GK activity assay, Segel plot); GK saturation curves with glucose in the presence of 0.1 and 0.2 µM purified GKRP; 200 mM Tris-HCl pH 7.5, 2 mM MgCl2, 1 mM DTT, 1 mM ATP, 0.5 mM NADP+, 37°C, 5 min; Ki from Segel's graph for an allosteric modulator of a cooperative enzyme
[3] = target: Glucokinase (GK) cloned from rat hypothalamic tanycyte cultures, recombinant (rat) (UniProt P17712); test: as above; remark: listed apart in the source

Sequence of UniProt Q07071 (Q07071 whole entry): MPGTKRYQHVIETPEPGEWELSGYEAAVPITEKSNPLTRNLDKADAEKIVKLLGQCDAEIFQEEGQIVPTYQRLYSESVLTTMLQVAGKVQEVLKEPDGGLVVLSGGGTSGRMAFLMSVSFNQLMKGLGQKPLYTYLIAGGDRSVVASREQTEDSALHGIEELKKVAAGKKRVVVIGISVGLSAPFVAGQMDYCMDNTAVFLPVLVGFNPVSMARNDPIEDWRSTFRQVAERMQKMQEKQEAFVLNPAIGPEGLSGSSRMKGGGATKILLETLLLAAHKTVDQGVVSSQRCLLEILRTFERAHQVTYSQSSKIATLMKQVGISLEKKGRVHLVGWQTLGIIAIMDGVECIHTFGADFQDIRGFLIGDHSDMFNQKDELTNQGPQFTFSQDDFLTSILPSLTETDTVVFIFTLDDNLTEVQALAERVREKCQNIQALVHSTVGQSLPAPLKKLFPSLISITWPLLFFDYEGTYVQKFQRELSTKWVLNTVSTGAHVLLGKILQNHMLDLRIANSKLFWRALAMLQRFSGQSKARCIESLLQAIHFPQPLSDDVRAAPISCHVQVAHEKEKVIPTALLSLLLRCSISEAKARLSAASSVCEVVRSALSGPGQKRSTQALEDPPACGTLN

| GK activity (glucose-6-phosphate dehydrogenase-coupled assay) at 5 min with 10 mM glucose and 0.05-0.25 µM GKRP; IC50 by nonlinear extrapolation [1] [µM] | Ki [2] [µM] | Ki [3] [µM] | Substance | Ki (GKRP (Rattus norvegicus)) [µM] |
| --- | --- | --- | --- | --- |
|  |  |  | Glucokinase (from UniProt P17712) | 1 |
| 280 | 0.21 | 210 | Glucokinase regulatory protein (GKRP) cloned from rat hypothalamic tanycyte cultures, recombinant (from UniProt Q07071 1-627) (natural protein) |  |
